Data on 4 molecules can be found in patent US20060014927A1 (US Dept. of Health and Human Services, published 2006).

Bridges are numbered along the chain shown (N, C = ends). [ ]: non-standard residue; d: D form. Gla = N[C@@H](CC(C(=O)O)C(=O)O)C(=O)O; Aad = N[C@@H](CCCC(=O)O)C(=O)O

Assay [1] addresses T1, recombinant GST-Grb2 SH2 protein (UniProt P62993 60-152).
T1 construct: not shown: glutathione S-transferase (GST) fusion partner
Nature of the assay: Biacore SPR competition; inhibitor mixed with GST-Grb2 SH2 (150-250 nM), binding to immobilised biotin-SHC(pTyr-317)-9-mer as competitor. The method, then:
(§1) The competitive binding affinity of the present inventive compounds was assessed using Biacore Surface Plasmon Resonance (SPR) methods utilizing a Biacore 2000 instrument. […] Specifically, competitive binding assays were carried out at 5 μl/min flow rate, with GST-Grb2-SH2 (150-250 nM) and a cyclic peptide inhibitor (10 nM-2 mM) in phosphate-buffered saline (PBS), pH 7.4, containing 0.01% P-20 surfactant (Biacore, Inc., Piscataway, N.J.) for a total of 10 min. The change in response units (RU) at equilibrium was measured from the […] and the percent of control (no added peptide) was calculated. […] The results represent the mean value of at least two independent experiments.

A further assay deals with T2, Grb2 adapter protein (UniProt P62993 1-217).
T2 construct: Endogenous protein in cell lysates or whole cells
Nature of the assay: MDA-MB-453 lysates incubated with inhibitor; anti-Grb2 co-immunoprecipitation, anti-pTyr Western blot; p185erbB-2 as competitor. The method, then:
Cell lysates were prepared from the serum-treated erbB-2-overexpressing breast cancer cell line MDA-MB-453 using 1% Triton X-100 in PBS containing 0.2 mM NaVO₄. Lysates were incubated with the present inventive cyclic peptide inhibitors specified in Example 1 and Example 12, at concentrations of 0.1, 0.4, 2, 10 and 50 μM. No inhibitor was used as a control. […] Grb2 and associated Grb2-binding proteins were immunoprecipitated from each lysate (500 μg) with anti-Grb2 antibodies and collected using protein A Sepharose using methods previously described. Immunoprecipitated proteins were separated by SDS-PAGE on 8-16% gradient gels (Novex). pTyr-containing proteins were detected by Western blotting using anti-phosphotyrosine antibodies (Upstate Biotechnology Inc.). Previous experiments have shown that a major tyrosine phosphorylated protein in MDA-MB-453 cells is p185^erbB-2, which is overexpressed as a consequence of gene amplification. […] A dose-dependent inhibition of the p185^erbB-2 receptor association with the Grb2 adapter protein was observed.

Assay [2] deals with T1, recombinant GST-Grb2 SH2 protein. Nature of the assay: comparison with the Glu1 analogue as reference; assay not named in the sentence (Biacore competition of Example 7 understood). The method, then: as §1
In general terms: SPR reads the build-up and loss of mass on a sensor chip optically.

T1 sequence (P62993 60-152): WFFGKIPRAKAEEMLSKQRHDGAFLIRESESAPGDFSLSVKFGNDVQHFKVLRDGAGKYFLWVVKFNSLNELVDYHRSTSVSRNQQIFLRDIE
T2 sequence (P62993 whole entry): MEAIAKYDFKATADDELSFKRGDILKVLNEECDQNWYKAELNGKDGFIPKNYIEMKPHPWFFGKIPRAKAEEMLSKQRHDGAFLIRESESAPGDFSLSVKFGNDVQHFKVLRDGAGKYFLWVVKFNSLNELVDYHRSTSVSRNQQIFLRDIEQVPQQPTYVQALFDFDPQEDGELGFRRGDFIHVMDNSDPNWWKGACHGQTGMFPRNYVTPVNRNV

B1: cyclo(CH2CO-Adi1-Leu2-Tyr3-Adi4-Asn5-Val6-Gly7-Met8-Tyr9-Cys)-amide (peptide)
peptide: {CH2CO}-[Aad]LY[Aad]NVGMYC-NH2
modifications: thioether N-10
notes: Synthetic thioether-cyclised, non-phosphorylated peptide
The IC50 is the concentration needed to halve the response being measured. As to B1, the IC50 in assay [1] came out at 3050 nM.

B2: cyclo(CH2CO-Gla1-Leu2-Tyr3-Glu4-Asn5-Val6-Gly7-Met8-Tyr9-Cys)-amide (peptide)
peptide: {CH2CO}-[Gla]LYENVGMYC-NH2
modifications: thioether N-10
SMILES: CSCC[C@@H]1NC(=O)CNC(=O)[C@H](C(C)C)NC(=O)[C@H](CC(N)=O)NC(=O)[C@H](CCC(=O)O)NC(=O)[C@H](Cc2ccc(O)cc2)NC(=O)[C@H](CC(C)C)NC(=O)[C@H](CC(C(=O)O)C(=O)O)NC(=O)CSC[C@@H](C(N)=O)NC(=O)[C@H](Cc2ccc(O)cc2)NC1=O
notes: Synthetic thioether-cyclised, non-phosphorylated peptide (L = S)
On to B2, for which the IC50 was found to be 2000 nM with Grb2 adapter protein and 640 nM in assay [1]. Also, the “fold improvement of binding efficacy over Glu^1” value in assay [2] came out at 31 fold.

B3: cyclo(CH2CO-Adi1-Leu2-Tyr3-Glu4-Asn5-Val6-Gly7-Met8-Tyr9-Cys)-amide (peptide)
peptide: {CH2CO}-[Aad]LYENVGMYC-NH2
modifications: thioether N-10
notes: as for B1
Turning to B3, the IC50 in assay [1] amounted to 3450 nM. The “fold improvement of binding efficacy over Glu^1” value in assay [2] was 6 fold.

B4: cyclo(CH2CO-Gla1-Leu2-Tyr3-Glu4-Asn5-Val6-Gly7-Met8-Tyr9-Cys)-NH-Ala-Ala-Val-Ala-Leu-Leu-Pro-Ala-Val-Leu-Leu-Ala-Leu-Leu-Ala-Pro (peptide)
peptide: {CH2CO}-[Gla]LYENVGMYCAAVALLPAVLLALLAP-NH2
modifications: thioether N-10; not fully specified; printed as cyclo(CH2CO-Gla1-Leu2-Tyr3-Glu4-Asn5-Val6-Gly7-Met8-Tyr9-Cys)-NH-Ala-Ala-Val-Ala-Leu-Leu-Pro-Ala-Val-Leu-Leu-Ala-Leu-Leu-Ala-Pro
Consider B4, for which, in the assay with Grb2 adapter protein, the IC50 worked out at 2000 nM.
